The text below walks through data of US20180155415A1 (published 2018).

The target in experiment [1] is T1, mouse NGF (m-NGF, Alomone) (mouse, UniProt P01139 122-241).
T1 construct: mature
The experiment in a line: SPR (BIAcore 2000), antibody immobilized by amine coupling, m-NGF injected. As to the method:
For m-NGF binding, the immobilization of the antibody was of 3000 resonance units (RU) in the experiment of panel A and of 6000 RU in the experiment of panel B. The injected concentrations of the m-NGF are indicated on top of each curve.
(§1) Experiments were performed on CMS5 chips with amine coupling, using a BIAcore 2000 machine. Coupling was performed with a specific kit purchased at BIAcore and the coupling reaction was carried out according to manufacturer's instructions.
(§2) Anti-NGF antibodies were immobilized on chip, while mouse NGF (m-NGF, Alomone) or recombinant mouse proNGF (rm-proNGF) were injected at decreasing concentrations to obtain binding curves.

Experiment [2] addresses T2, recombinant mouse proNGF (rm-proNGF) (mouse, UniProt P01139 19-241).
T2 construct: Pro-form of NGF
The experiment in a line: SPR (BIAcore 2000), antibody immobilized (3000 RU), rm-proNGF injected, kinetic analysis. As to the method:
For rm-proNGF binding (panel C), the immobilization of the antibody was of 3000 RU.
as §1, §2

T2 sequence (P01139 19-241): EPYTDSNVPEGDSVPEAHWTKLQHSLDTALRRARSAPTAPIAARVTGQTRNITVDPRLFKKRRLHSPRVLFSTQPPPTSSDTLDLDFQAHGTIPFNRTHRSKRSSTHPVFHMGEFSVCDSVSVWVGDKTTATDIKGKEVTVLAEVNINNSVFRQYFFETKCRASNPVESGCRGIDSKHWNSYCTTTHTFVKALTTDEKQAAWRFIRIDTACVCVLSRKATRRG
T1 sequence (P01139 122-241): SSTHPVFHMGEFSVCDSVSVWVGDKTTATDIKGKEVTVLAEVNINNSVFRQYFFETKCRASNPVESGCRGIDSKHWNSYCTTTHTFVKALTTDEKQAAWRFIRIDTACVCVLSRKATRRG

B1: αD11 anti-NGF antibody (antibody, V domains shown)
VH: QVQLKESGPGLVQPSQTLSLTCTVSGFSLTNNNVNWVRQATGRGLEWMGGVWAGGATDYNSALKSRLTITRDTSKSQVFLKMHSLQSEDTATYYCARDGGYSSSTLYAMDAWGQGTTVTVSA
VL: DIQMTQSPASLSASLGETVTIECRASEDIYNALAWYQQKPGKSPQLLIYNTDTLHTGVPSRFSGSGSGTQYSLKINSLQSEDVASYFCQHYFHYPRTFGGGTKLELK
notes: Rat monoclonal antibody purified from hybridoma supernatant and immobilized on the chip; The tie to αD11 is indirect; also called alphaD11; aD11
Take B1: in experiment [1], the Ka was found to be 3.55e+11 M⁻¹ and the equilibrium dissociation constant (Kd) worked out at 0.00281 nM. Further, in experiment [2], the Ka was 1.2e+09 M⁻¹ and the Kd was 1.9 nM.
